These results are taken from patent US20240254222A1 (Bayer, published 2024).

For test [1], the target named is T1, Mouse Semaphorin3A-Fc (R&D Systems), TPP-13357 (mouse, UniProt O08665 21-747).
T1 construct: range 21-747; R&D Systems 5926-S3; also called mouse Sema3A-Fc
T1 sequence (looked up): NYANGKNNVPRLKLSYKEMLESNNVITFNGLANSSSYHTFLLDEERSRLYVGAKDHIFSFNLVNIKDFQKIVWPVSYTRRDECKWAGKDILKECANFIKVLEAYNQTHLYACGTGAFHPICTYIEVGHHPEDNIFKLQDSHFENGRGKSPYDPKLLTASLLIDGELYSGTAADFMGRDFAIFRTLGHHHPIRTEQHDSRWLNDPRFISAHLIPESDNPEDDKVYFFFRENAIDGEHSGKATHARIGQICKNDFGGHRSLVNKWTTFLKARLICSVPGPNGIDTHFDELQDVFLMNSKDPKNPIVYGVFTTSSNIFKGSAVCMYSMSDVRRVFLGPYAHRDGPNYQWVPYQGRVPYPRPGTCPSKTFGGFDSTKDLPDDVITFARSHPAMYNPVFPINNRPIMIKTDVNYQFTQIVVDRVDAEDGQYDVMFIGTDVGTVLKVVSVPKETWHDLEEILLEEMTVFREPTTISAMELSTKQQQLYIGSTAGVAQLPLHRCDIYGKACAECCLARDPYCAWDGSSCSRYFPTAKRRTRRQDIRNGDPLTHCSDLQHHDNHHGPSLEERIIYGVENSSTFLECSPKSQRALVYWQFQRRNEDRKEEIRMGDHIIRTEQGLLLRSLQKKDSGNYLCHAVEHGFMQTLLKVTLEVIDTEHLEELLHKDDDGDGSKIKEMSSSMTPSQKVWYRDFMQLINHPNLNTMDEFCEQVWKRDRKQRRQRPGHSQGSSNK
The test can be described thus: SPR, captured IgG1, Sema3A-Fc analyte. As for the experimental part:
(§1) To assess the binding kinetics and affinity of anti-Sema3A antibodies as well as their species cross-reactivity profile, binding assays were conducted using surface plasmon resonance (SPR). Binding assays were performed on a Biacore T200 instrument or on a Biacore 8K+ instrument (Cytiva) at 25° C. using assay buffer HBS P+, 300 mM NaCl, 0.75 mM CaCl₂, 2.5 mM MgCl₂, 1 mg/ml BSA, 0.05% NaN₃. Antibodies were captured either via anti-human Fc IgGs (“Human antibody capture kit”, Order No. BR100839, Cytiva) or in case of Fc-tagged analytes by anti-human Fab IgGs (“Human Fab capture kit”, Order No. 28958325, Cytiva) covalently amine coupled to a Series S CM5 sensor chip (Cytiva). The amine coupling was carried out according to the manufacturer's instructions using 1-ethyl-3-(3-dimethylaminopropyl) carbodiimide hydrochloride (EDC), N-hydroxysuccinimide (NHS) and ethanolamine HCl, pH 8.5 (“Amine Coupling Kit” BR-1000-50, Cytiva.). For phage display hits Fc-tagged human and mouse Sema3A was used as analytes in a concentration range from 1.56-200 nM. Human, mouse, cynomolgus, rat, dog and pig monovalent Sema3A domain were used as analytes in a concentration series from […] in multi cycle kinetics mode or in 100 nM for binding analysis only. The sensor surface was regenerated with glycine pH 2.0 after each antigen injection. Obtained sensorgrams were double referenced (subtraction of reference flow cell signal and buffer injection) and were fitted to a 1:1 Langmuir binding model to derive kinetic data using the Biacore T200 Evaluation software.
(In general: Surface plasmon resonance follows binding to a sensor surface in real time, without labels.)

Test [2] concerns the target T2, Human Semaphorin3A-Fc (R&D Systems), TPP-13211 (human).
T2 construct: R&D Systems 1250-S3; also called recombinant human Sema3A-Fc chimera
The test can be described thus: SPR, captured IgG1, Sema3A-Fc analyte. As for the experimental part:
as §1

In another test the target is T3, Sema3C (R&D Systems) (Homo sapiens (Human), UniProt Q99985 21-751).
T3 sequence: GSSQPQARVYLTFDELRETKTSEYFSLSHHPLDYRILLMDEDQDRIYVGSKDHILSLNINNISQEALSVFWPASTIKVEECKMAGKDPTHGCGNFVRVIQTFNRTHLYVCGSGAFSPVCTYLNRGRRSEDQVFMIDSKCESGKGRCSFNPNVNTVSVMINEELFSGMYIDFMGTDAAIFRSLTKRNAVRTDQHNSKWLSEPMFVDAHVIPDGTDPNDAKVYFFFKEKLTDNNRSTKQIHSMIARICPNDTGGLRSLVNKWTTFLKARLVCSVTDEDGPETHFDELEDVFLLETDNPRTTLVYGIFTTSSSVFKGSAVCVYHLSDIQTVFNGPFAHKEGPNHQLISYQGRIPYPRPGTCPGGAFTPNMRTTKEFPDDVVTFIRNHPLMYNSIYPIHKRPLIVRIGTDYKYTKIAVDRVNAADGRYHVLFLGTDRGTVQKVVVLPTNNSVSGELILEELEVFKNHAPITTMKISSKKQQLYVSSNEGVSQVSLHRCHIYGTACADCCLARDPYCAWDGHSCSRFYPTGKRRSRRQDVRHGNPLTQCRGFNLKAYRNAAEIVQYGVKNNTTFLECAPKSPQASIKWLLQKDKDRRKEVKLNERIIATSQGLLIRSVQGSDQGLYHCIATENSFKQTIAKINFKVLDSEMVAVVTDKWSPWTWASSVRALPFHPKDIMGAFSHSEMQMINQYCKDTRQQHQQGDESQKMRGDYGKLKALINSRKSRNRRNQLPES
The experiment in a line: ELISA.

In a further test the target is T4, Sema3E (R&D Systems) (Homo sapiens (Human), UniProt O15041 26-775).
T4 sequence: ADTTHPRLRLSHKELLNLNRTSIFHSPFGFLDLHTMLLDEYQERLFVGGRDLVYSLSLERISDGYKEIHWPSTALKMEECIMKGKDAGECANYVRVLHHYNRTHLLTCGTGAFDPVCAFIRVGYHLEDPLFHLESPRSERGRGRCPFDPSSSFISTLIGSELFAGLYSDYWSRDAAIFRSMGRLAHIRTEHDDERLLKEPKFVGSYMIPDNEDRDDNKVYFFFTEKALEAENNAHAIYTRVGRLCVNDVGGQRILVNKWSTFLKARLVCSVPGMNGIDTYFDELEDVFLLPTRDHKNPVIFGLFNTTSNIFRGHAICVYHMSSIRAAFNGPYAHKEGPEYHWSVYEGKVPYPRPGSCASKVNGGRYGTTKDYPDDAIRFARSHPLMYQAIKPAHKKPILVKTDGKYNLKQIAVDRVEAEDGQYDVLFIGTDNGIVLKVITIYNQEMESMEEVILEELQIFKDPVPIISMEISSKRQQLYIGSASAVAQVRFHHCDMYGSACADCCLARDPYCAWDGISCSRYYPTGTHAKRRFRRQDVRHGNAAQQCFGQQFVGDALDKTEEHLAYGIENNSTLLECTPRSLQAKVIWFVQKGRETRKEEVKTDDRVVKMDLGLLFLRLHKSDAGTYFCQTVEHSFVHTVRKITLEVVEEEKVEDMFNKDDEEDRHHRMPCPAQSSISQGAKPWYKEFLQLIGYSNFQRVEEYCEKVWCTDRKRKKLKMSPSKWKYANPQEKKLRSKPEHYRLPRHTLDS
The test can be described thus: ELISA.

By Kd is commonly meant a measure of binding affinity in units of concentration. High values mean lower affinity, low ones higher affinity.

T2 sequence (chain, as listed by the source limits assumed): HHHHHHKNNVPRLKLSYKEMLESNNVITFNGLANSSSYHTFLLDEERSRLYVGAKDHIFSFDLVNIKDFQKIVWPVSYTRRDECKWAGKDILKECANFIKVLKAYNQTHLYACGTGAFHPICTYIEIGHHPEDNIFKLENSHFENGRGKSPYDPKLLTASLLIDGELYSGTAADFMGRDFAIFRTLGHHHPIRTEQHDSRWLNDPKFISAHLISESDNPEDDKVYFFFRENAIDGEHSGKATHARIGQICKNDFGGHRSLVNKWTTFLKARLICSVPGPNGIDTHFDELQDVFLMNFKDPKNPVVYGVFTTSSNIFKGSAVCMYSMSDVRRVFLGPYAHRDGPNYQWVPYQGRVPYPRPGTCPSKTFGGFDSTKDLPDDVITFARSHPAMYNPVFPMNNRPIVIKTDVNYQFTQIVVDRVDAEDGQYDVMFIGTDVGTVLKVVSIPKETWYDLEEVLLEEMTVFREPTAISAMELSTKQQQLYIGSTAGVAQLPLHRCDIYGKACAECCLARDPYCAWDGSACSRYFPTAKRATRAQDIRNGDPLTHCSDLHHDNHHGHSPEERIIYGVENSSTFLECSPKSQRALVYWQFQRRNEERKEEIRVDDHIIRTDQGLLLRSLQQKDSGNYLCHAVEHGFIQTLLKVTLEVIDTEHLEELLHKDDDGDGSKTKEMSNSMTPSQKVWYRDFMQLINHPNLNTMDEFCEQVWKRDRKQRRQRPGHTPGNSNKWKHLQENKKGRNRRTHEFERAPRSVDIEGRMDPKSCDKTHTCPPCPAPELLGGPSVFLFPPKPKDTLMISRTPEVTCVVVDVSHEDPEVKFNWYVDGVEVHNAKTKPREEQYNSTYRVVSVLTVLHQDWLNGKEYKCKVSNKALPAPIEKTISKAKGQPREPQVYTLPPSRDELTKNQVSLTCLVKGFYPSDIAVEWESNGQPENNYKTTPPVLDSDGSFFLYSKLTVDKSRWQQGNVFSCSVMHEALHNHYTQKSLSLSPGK

B1: TPP-15374 (antibody, human IgG1, lambda, V domains shown)
VH: EVQLLESGGGLVQPGGSLRLSCAASGFTFSSYEMNWVRQAPGKGLEWVSGISWNSGSIGYADSVKGRFTISRDNSKNTLYLQMNSLRAEDTAVYYCARSGYSSSWFDPDFDYWGQGTLVTVSS
VL: QSVLTQPPSASGTPGQRVTISCTGSSSNIGAGYDVHWYQQLPGTAPKLLIYGNSNRPSGVPDRFSGSKSGTSASLAISGLRSEDEADYYCSSYAGSNPYVVFGGGTKLTVLG
notes: human IgG1; also called IgG1, hit from panning; parental mAb
With B1, the Kd in test [1] and in test [2] was 18 nM in each case. Besides, the binding result with Sema3C (R&D Systems) and in the test with Sema3E (R&D Systems) was “no binding” each time.

B2: TPP-15370 (antibody, human IgG1, lambda, V domains shown)
VH: EVQLLESGGGLVQPGGSLRLSCAASGFTFSSYGMHWVRQAPGKGLEWVSAIGTGGDTYYADSVMGRFTISRDNSKNTLYLQMNSLRAEDTAVYYCARRDDYTSRDAFDVWGQGTLVTVSS
VL: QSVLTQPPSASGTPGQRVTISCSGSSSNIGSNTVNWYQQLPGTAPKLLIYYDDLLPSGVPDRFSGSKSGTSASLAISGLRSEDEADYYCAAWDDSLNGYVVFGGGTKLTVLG
notes: as for B1
In the case of B2, the Kd is 3.2 nM in test [1] and 2.8 nM in test [2]. Besides, the binding result in the test with Sema3C (R&D Systems) and in the test with Sema3E (R&D Systems) was “no binding” throughout.
